Measured values published in patent publication EP4752227A2.

Biological target: CD3 (human) (UniProt P07766)
Test: cell-based or functional assay

UniProt P07766, sequence (P07766 23-207): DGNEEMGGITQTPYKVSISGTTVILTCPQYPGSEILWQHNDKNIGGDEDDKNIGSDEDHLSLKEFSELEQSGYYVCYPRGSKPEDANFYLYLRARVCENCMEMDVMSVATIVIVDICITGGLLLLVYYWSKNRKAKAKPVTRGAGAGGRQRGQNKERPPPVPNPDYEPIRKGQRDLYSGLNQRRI

How did the Transduction efficiencies as measured by CD3+GFP+ cells at Day 6 turn out when soluble anti-CD3 antibody clone HIT3A was run?
Its Transduction efficiencies as measured by CD3+GFP+ cells at Day 6 is 4.31%.

For soluble anti-CD3 antibody clone OKT3, which Transduction efficiencies as measured by CD3+GFP+ cells at Day 6 is on record?
Its Transduction efficiencies as measured by CD3+GFP+ cells at Day 6 is 3.27%.

How did the Transduction efficiencies as measured by CD3+GFP+ cells at Day 6 turn out when soluble anti-CD3 antibody clone UCHT1 was run?
The Transduction efficiencies as measured by CD3+GFP+ cells at Day 6 was 0.52%.
